Test results reported in the nanobody polyreactivity screen of Harvey et al. (2022).

Assay: yeast display, Sf9 membrane polyspecificity reagent, FACS + sequencing; frameworks hold sequencing errors
In short: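 Nanobodies came from a synthetic yeast display library in Saccharomyces cerevisiae BJ5465, induced with galactose for 36–48 hours and stained for 1 hour at 4 °C with 10% biotinylated, detergent-solubilized Sf9 membrane reagent. Cells were enriched on streptavidin microbeads and then FACS-sorted, with low and high (top ~1%) gates set on anti-HA fluorescence for expression and streptavidin fluorescence for reagent binding. Each polyreactivity label reflects the gate a clone came from. Genes were amplified by colony PCR, sequenced by MiSeq 2 × 250 and filtered by CDR length.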

Sequence | polyreactivity (PSR sort gate)
QFQLVESGGGLVQAGGSLRLSCAASGSIFPGYAMGWYRQAPGKERELVAAITVSGVSTYYADSVKGRFTISRDNEKNTVYLQMNSLKPEDTAVYYCARDNWQLYPSTWYDYWGQGTQVNVSS | high polyreactivity
QVQLVESGGGLVQAGGSLRLSCAASGFIFYEYAMGWYRQSPGKERELVAGISWSGDSTYYADSVKGRFTISRDNAKNTVYLQMNRLKPEDTAVYYCAADPYYQGYDYWGQGTQVTVSS | low polyreactivity
QVQLQESGGGLVQAGGSLRLSCAASGYISYFVGMGWYRQAPGKEREFVASIADGSYTYYADSVKGRFTISRDNAKNTVYLQRNSLKPEDTAVYYCAVEDSWTYRFDYWGQGTQVTVSS | high polyreactivity
QVQLVESGGGLVQAGGSLRLSCAASGRTCIDKAMGWYRQAPGKERELVAAITKGARTYYADSVKGRFTISRDNAKNTVYLQMISLKPEDTGVYYCASVSYTQSHAYWGTGYRYGYWGQGTQVTVSS | high polyreactivity
QVQLVESGGGLVQAGGSLRLSCAASGSIFRAYAMGWYRQAPGKERELVAAISWGGGSTSYADSVKGRFTISRDNAKNTVYLQMNSLKPEDTAVYFCNKVSFSKRRDYYWGQGTQVTVSS | high polyreactivity
QVQLVESGGGLVQAGGSLRLSCAASGSTYRPYAMGWYRQAPVKERELVAAISWSGGRTYYADSVKGRFTISRDNAKNNVYLPMNSLKPEDTAVYYCNRAGRQPKNTYDYWGQGTQVTVSS | high polyreactivity
QVQLVESGGGLVQAGGSLRLSCAASGSTFYRYAMGWYRQAPGKEREFVAAISGSGGSTRYADSVKGRFTISRDNAKNTVYLQMNSLKPEDTAVYYCAARSRDGYITFDYWGQGTQVTVSS | high polyreactivity
QVQLVESGGGLVQAGGSLRLSCAASGRIFGWYAMGWYRQAPGKERELVAAISGRGGSTFYADSVKGRFTISRDNEKNTVYLQMNSLKPEDTAVYYCNAYSWYGYDYWGQGTQVTVSS | high polyreactivity
QVQLVESGGGLVQAGGSLRLSCAASGSILYVYAMGRYRQAPGKERELVAAISGSGGSTYYADSVKGRFTISRDNAKNTVYLQMNSLKPEDTAVYYCAADYATVTWRGIAYDYWGLGTQVTVSS | low polyreactivity
QVQLVESGGGLVQAGGSHRLSCAASGSTFDYYAMGWYRQAPGKERELVAAITFSGDRTYYADSVKGRFTISRDNAKNTVYLQMNSLKPEDTAVYYCAARWFVYRYIFDYWGQGTQVTVSS | high polyreactivity
QVQREESGGGLVQAGGSLRLSCAASGFIFDNNAMGWYRQAPGKERELVAAISSADSTNYADSEKGRFSISRDNAKNTVYLQMNSLKPEDTAVYSCNRSQGGEKGWFHYDSWGQGTQVTVSS | low polyreactivity
QVQLVESGGGLVQAGGSLRLSCAASGSTFWYNAMGWYRQAPGKERELVARISYSGGSTYYADSVKGRFTISRDNAKNTVYLQMNSLKPEDTAVYYCAARRPYKYDYWGQGTQVTVSS | high polyreactivity
QVQLVESGGGLVQAGGSLRLSCAASGRIFVANAMGWYRQAPGKERELVAAISRRGGRTYYADSVKGRFTISRDNAKNTVYLQMNSLKPEDTAVYYCARVPTRAEDVAGWTGMDYWGQGTQVTVSS | high polyreactivity
QVQLVESGGGLVQAGGSLRLSCAASGFIFPWYAMGWYRQAPGKERELVAIISWDTGSTYYADSVKGRFTISRDNAKNTVYLQMNSLKPEDTAVYYCAAAYYYYVSGWFDYWGQGTQVTVSS | low polyreactivity
QVQLGESGGGLVQAGGSLRLSCAASGSTFGRYVMGWYRQAPAKERELVDAISKNAGSTYYADSVKGRFTISRDIAKKTVYLQMNSLKPEDTAVYYCAADWRTKGYDSLGQGTQVTVSS | high polyreactivity
QVQLVESGGGLVQAGGSLRLSCAASGLIFTGNVMGWYRQAPGKERELVAAISRSGGRTYYADSVKGRFTISRDNAKNTVYLQMNSLKPEDTAVYYCNKVSPERVYYGSYFRYYYWGQGTQVTVSS | high polyreactivity
QVQLVESGGGLVQAGRILRISCAASGFKYAMGWYRQEPGKERELVAAISSGGITSYADSVKGRFTISRDNAKNTVYLQMNSLKPEDTAVYYCAAALRRRRAYFDYWGQGTQVTVSS | high polyreactivity
QVQLVESGGGIVQAGGSLRLSCAASGSIFLYYAMGWYRQAPGKERELVAPIRGSGSSTYYADSVKGRFTISRDNAKNTVYLQMNSLKPEDTAVYYCSAKGYRWFRHGGYYFKFDYWGQGTQVTVSS | high polyreactivity
QVRLVESGGGLVQEGGSLRLSCAASGSTFGDYPMGWYRQAPGKERELVAAITLTGGSTYYADSVKGRFTISRDNAKNTVYLQMNSLKPEDTAVYYCNTDVIRWVGGTWHRYYYWGQGTQVTVSS | low polyreactivity
QVQLVQSCGCLVQAGGSLRLSCAASGRIFYGNDMGWNRQAPGKERDLVAAISSGTSTNYADSVKGRFTISRDNAMNTVYLQMNSLKPEVTAVYYWAAGSYSRYLYSLYFDFDYWGQGSQVTVSS | low polyreactivity
QVQLVESGGGLVQAGGSLRLSCAASGRTFYRNAMGWSRQAPGKERELVAAISYRGGRTYYADSVKGRFTISRDNAKNTVYLQMNSLKPEDTAVYYCAADLRTRVPYDYWGQGTQVTVSS | high polyreactivity
QVQLVESGGGLVQAGGSLRLSCAASGSTLVSNAMGWYIQAPGKEREFVAAINSSGSRTYYADSVKGRFTISRDNANNTVYLQMNSLKPEDTAVYYCAAGYWNDFDWGQVTQVTVSS | low polyreactivity

Sequence | polyreactivity (PSR sort gate)
QVELVESGGGLVQAGGSLRLSCAASGGTFYRYAMGWYRQAPGKEREFVASITQRGGRTYYADSVMGRFTISRDNAKNTVYLQMNSLIPEDTACYYCAAQGYKYWHGDGSDYWGQGSQVTVSS | high polyreactivity
QVQLVESGGGLVQAGGSLRLSCAASGFTIGYKVMGWYRQAPGKERELVATISWNGARTYYADSVKGRFTISRDNAKNTVYLQMNSLKPEDTAVYYCAARRYYRGEYDYWGQGTQVTVSS | low polyreactivity
QVQLVESGGGLVQAGGSLRLSCAASGSIFLFYAMGWYRQAPGKERELVAAISYSGGRTYYADSVKGRFTISRDNAKNTVYLQMNSLNPEDTAVYYCAAVGYSSYPYRRFDYWGQGTQVTVSS | high polyreactivity
QVQLVESGGGLVQAGGSLRLSCAASGRIFRDYSMGWYRQAPGKETELVATITWSGATTYYADSVKGRFTISRDNAKNTVYLQMNSLKPEDTAVYYCNTDTDVDVAFDSWGQGTQVTVSS | low polyreactivity
QVQLVESGGGLVQAGGSLRLSCAASGSTLGLNAMGWYRKAPGKERELVAAISQSGTSTYYADSVKGRFTISRDNAKNTVYLQMNSLKPEDTAVYYCAVEYTQWWTYDYWGQGTQVTVSS | low polyreactivity
QVQLVESGGGLVQAGGSLRLRCAASGSIFQSNAMGWYRPAPGKESELVAAISSSGVRTYYADSVKGRFTISRDNAKNTVYLQMNSLKPEDTAVYYCATGWYYAGGPTYEYYYWGQGTQVTVSS | low polyreactivity
QVQLVESGGGLVQAGGSLRLSCAASGITFNVLAMGWYRQAPGKEREFVAAISTRDGTTYADSLKGRFTISRDNAKNTVYLQMNSLKPEDTAVYYCAAAYYYDGQQGDFDYWGQGTQVTVSS | low polyreactivity
QVQLVESGGGLVQAGGSLRLSCAASGGIFSAYDMGWYRQAPGTERELVAAINSGGSTNYADSVKGRFTISRDNAKNTVYLQMNSLKPEDTAVYYCAAAKVSWFGLKYYYWGQGTQVTVSS | high polyreactivity
QVQLVESRGGLVQAGGSLLLSCAASGIIFRYYTMGWYRQAPGKERELVAAIERSGGNTYYADSVKGRFTISRDNAKNTVYLQMNSLKPEDTAVYYCAARYATWYFRRGRKTSDYDYWGQGTQVTVSS | high polyreactivity
QVQLVESGGGLVQAGGSLSLSCAASGSIYWYAMGWYRQAPGKERELVSAISRRGGSTYYADSLKGRFTISRDNAKNTVYLQMNSLKPEDTAVYYCAVGIYGEYDYWGQGTQVTVSS | high polyreactivity
QVQLVESGGGLVQAGGSLRLSCAASGSIFHTYAMGWYRQAPGKERELVAAITVSGGDTYYADSVKGRFTISRDNAKNTGYLQMNSLKPEDTAVYYCAKRIFDTFDSWGQGTQVTVSS | low polyreactivity
QVQLVESGGGLVQAGGSLRLSCSASGIIFGWYAMGWYRKAPGKEREFVATISWSGASTYYADSVKGRFTISRDNAKNTVYLQLNSLKPEDTAVYYCAAVGRRQAFGRRDYWGQGKQVTVSS | high polyreactivity
QVQLVESGGGLVQAGGSLRFSCAASGFIFVSNAVGWYRQAPGKERELVAAISRRGGRTYYADSVKGRFTISRDNEKNTVYVPMNSLKPEDTAVYDCAADQYRVSHQWYDYWGQGTQVTVSS | high polyreactivity
QDQLVESGGGLVQAGGSLRLSCAASGFTFDENAMGWYRQAPGINYSGASTYYADSVKGRFTISRDNAKNTVYLQMNSLKPEDTAVYYCAAEVVAQMNYWGQGTQVTVSS | low polyreactivity
QVQLVESGGGLVQAGGSLRLSCPASGSSSVYNAMGWYRQAPGKERELVAAISWSGGRTSYADSVKGRFTISRDIAKNTVYLQMNSLKPEDTAVYFCAAHTVYSPPRVAGPGYDYWGQGTQVTVSS | low polyreactivity
QVQLVESGGGLVQAGGSLRLSCAASGRTFNQYAMGWYRQAPGKERELVAAISRRTGRTYYADSVKGRFTISRDNAKNTVYLQMNSLKPEDTAVYYCNTLYFVGPDYGYDYWGQGTQVTVSS | high polyreactivity
QVQLVESGGGLVQAGGSLRLICAASGRIFSLYAMGWYRQAPGKERELVAAITWSSGSTYYADSVKGRFTISRDNAKNTVYLQMNSLKPEDTAVYYCNAVWRTRDYDYWGQGTQVTVSS | low polyreactivity
QVQLVESGGGLVQAGGSLRLSCAASGSIFRFYGMGWYRQAPGKERELVATISWSSGRTSYADSVKGRFTISRDNAKNTVYLQMKSLKPEDTAVYYCNADQWDKSYDYWGQGTQVTVSS | high polyreactivity
QVQLVESGGGLVQAGGSLRLSCAASGFIFRRYAMGWYRQAPGKERELVAIITSGVRTYSADSVKGRFTISRDNAKNTVYLQMNSLKPEDTAVYYCAARVKDYPEYDYWGQGTQVTVSS | low polyreactivity
QVQLVESGGGLVQAGGSLRLSCAPSGLIFDANAMGWYRQAPGKERELVAAISNGDSTYYADSVKGRFTISRDNAKNTLYLQMNSLKPEDTAVYYCNARIIYRKWLLRSGTFNYWGQGTQVTVSS | low polyreactivity
QVQLVESGGGLVQAGGSLRLSCAASGRIFRWYAMGWYRQAPGKERELVAAISKSGGTTNYADSVKGRFTISRDNAKNTVYLQMNSLKPEDTAVYYCAARRYPYGGYGYRYDYWGQGTQVTVSS | high polyreactivity
